Laboratory results: patent US20240117054A1 (DRAGONFLY THERAPEUTICS, published 2024)

B1: 14H8.E7 (antibody, V domains shown)
VH: EVQLQESGAELVKPGASVKLSCKASGYTFTNYWINWLKQRPGQGLEWIGNIYPGSTIINYNEKFKNKATLTVDTSSSTAYMQLSSLTSDDSAVYYCARRVVYLYFDSWGQGTTLTVSS
VL: QIVLTQSPAIMSASPGEKVTMTCSASSSVSYMHWYQQKSGTSPKRWIFDTSKLASGVPVRFSGSGSGTSYSLTITNMETEDAATYYCQQWSSKSPTFGGGTKLEIK
B2: F3′-1158 dead-2D (bispecific antibody, human IgG1, kappa)
chain: DIVMTQSPDSLAVSLGERATINCRASESVDTYGSSFVHWYQQKPGQPPKLLIYLASNLESGVPDRFSGSGSGTDFTLTISSLQAEDVAVYYCQQNNEEPWTFGCGTKVEIKGGGGSGGGGSGGGGSGGGGSQVQLVQSGAEVKKPGASVKVSCKASGYTFTRYVMHWVRQAPGQCLEWMGFINPYNDDTKYNEKFKGRVTITRDTSASTAYMELSSLRSEDTAVYYCARWRQLGSLDSWGQGTTVTVSSGSDKTHTCPPCPAPELLGGPSVFLFPPKPKDTLMISRTPEVTCVVVDVSHEDPEVKFNWYVDGVEVHNAKTKPREEQYNSTYRVVSVLTVLHQDWLNGKEYKCKVSNKALPAPIEKTISKAKGQPREPRVYTLPPCRDELTKNQVSLTCLVKGFYPSDIAVEWESNGQPENNYKTTPPVLVSDGSFTLYSKLTVDKSRWQQGNVFSCSVMHEALHNHYTQKSLSLSPG
heavy: EVQLVESGGGLVKPGGSLRLSCAASGFTFSSYSMNWVRQAPGKGLEWVSSISSSSSYIYYADSVKGRFTISRDNAKNSLYLQMNSLRAEDTAVYYCARGAPIGAAAGWFDPWGQGTLVTVSSASTKGPSVFPLAPSSKSTSGGTAALGCLVKDYFPEPVTVSWNSGALTSGVHTFPAVLQSSGLYSLSSVVTVPSSSLGTQTYICNVNHKPSNTKVDKKVEPKSCDKTHTCPPCPAPELLGGPSVFLFPPKPKDTLMISRTPEVTCVVVDVSHEDPEVKFNWYVDGVEVHNAKTKPREEQYNSTYRVVSVLTVLHQDWLNGKEYKCKVSNKALPAPIEKTISKAKGQPREPQVCTLPPSRDELTENQVSLTCLVKGFYPSDIAVEWESNGQPENNYKTTPPVLDSDGSFFLYSWLTVDKSRWQQGNVFSCSVMHEALHNHYTQKSLSLSPG
light: DIQMTQSPSTLSASVGDRVTITCRASNSISSWLAWYQQKPGKAPKLLIYEASSTKSGVPSRFSGSGSGTEFTLTISSLQPDDFATYYCQQYDDLPTFGGGTKVEIKRTVAAPSVFIFPPSDEQLKSGTASVVCLLNNFYPREAKVQWKVDNALQSGNSQESVTEQDSKDSTYSLSSTLTLSKADYEKHKVYACEVTHQGLSSPVTKSFNRGEC
notes: also called first variant

Key:
hFLT3-His fusion protein = target: T1, hFLT3-His fusion protein (human, UniProt P36888 27-541, limits assumed); assay: SPR, purified murine subclone, hFLT3-His, 1:1 binding fit
T1 construct: Soluble recombinant antigen used for immunisation, ELISA, SPR and BLI binning; also called recombinant hFLT3 protein; not shown: His tag
T1 sequence (looked up): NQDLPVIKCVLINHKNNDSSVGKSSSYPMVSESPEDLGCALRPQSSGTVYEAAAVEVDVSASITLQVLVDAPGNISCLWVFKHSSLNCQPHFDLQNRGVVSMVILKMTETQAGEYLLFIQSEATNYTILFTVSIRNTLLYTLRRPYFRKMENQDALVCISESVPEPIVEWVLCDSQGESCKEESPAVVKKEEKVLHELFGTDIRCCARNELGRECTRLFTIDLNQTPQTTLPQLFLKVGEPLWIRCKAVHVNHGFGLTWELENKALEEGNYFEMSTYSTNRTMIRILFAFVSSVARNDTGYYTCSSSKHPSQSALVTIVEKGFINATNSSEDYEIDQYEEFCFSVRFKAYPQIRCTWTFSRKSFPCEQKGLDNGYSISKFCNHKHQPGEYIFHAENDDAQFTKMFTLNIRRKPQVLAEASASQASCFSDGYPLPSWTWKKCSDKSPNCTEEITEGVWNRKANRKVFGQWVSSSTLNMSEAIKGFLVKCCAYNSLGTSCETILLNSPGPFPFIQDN

human NKG2D = target: T2, human NKG2D (human, UniProt P26718 78-216, limits assumed); assay: assay not described
T2 sequence (looked up): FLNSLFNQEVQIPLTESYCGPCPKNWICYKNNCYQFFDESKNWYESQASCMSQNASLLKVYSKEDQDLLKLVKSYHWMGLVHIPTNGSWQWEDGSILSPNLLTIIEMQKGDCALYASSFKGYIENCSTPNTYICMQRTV

Binder	binding result (hFLT3-His fusion protein)	binding result (human NKG2D)
B1	binds	
B2		no binding
